Test results as given in the supplement of paper PMC10567573.

B1: APBB1IP (parent)
chain: SQVSMWDQRWQDHQPLLPITDVP

Variants of: B1
Test: protein stability index of a GFP-peptide fusion (GPS, HEK-293T) (PSI 1-6); higher = more stable
Details: c terminus: native
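Note: lentivirally expressed fusions sorted by FACS into six bins by GFP to DsRed ratio, PSI derived from sequencing read proportions per bin multiplied by bin number.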

Row | Variant | protein stability index
1 | SQVSMWDQRWQDLQPLLPITDVP [H13L] | 1.95
2 | SQVSMWDQRWQDPQPLLPITDVP [H13P] | 2.23
3 | SQVSMWDQRWQDFQPLLPITDVP [H13F] | 1.88
4 | SQVSMWDQRWQDMQPLLPITDVP [H13M] | 1.99
5 | SQVSMWDQRWQDYQPLLPITDVP [H13Y] | 2.15
6 | SQVSMWDQRWQDQQPLLPITDVP [H13Q] | 2.43
7 | SQVSMWDQRWQDEQPLLPITDVP [H13E] | 3.47
8 | SQVSMWDQRWQDKQPLLPITDVP [H13K] | 2.76
9 | SQVSMWDQRWQDVQPLLPITDVP [H13V] | 2.47
10 | SQVSMWDQRWQDSQPLLPITDVP [H13S] | 2.94
11 | SQVSMWDQRWQDRQPLLPITDVP [H13R] | 2.58
12 | SQVSMWDQRWQDIQPLLPITDVP [H13I] | 2.3
13 | SQVSMWDQRWQDHQPLFPITDVP [L17F] | 2.06
14 | SQVSMWDQRWQDHQPLSPITDVP [L17S] | 2.34
15 | SQVSMWDQRWQDHQPLVPITDVP [L17V] | 2.71
16 | SQVSMWDQRWQDHQPLMPITDVP [L17M] | 2.17
17 | SQVSMWDQRWQDHQPLAPITDVP [L17A] | 3.32
18 | SQVSMWDQRWQDHQPLYPITDVP [L17Y] | 2.19
19 | SQVSMWDQRWQDHQPLKPITDVP [L17K] | 3.67
20 | SQVSMWDQRWQDHQPLPPITDVP [L17P] | 2.84
21 | SQVSMWDQRWQDHQPLDPITDVP [L17D] | 3.79
22 | SQVSMWDQRWQDHQPLGPITDVP [L17G] | 3.81
23 | SQVSMWDQRWQDHQPLWPITDVP [L17W] | 2.96
24 | SQVSMWDQRWQDHQPLCPITDVP [L17C] | 2.06
25 | SQVSMWDQRWQDHQPLIPITDVP [L17I] | 1.85

Row | Variant | protein stability index
26 | SQVSMWDQRWQDHQPLTPITDVP [L17T] | 2.58
27 | SQVSMWDQRWQDHQPLHPITDVP [L17H] | 3.2
28 | SQVSMWDQRWQDHQPLNPITDVP [L17N] | 3.1
29 | SQVSMWDQRWQDHQPLQPITDVP [L17Q] | 2.59
30 | SQVSMWDQRWQDHQPLRPITDVP [L17R] | 2.26
31 | SQVSMWDQRWQDHQPLEPITDVP [L17E] | 3.68
32 | SQVSMWDQRWQDHQVLLPITDVP [P15V] | 1.55
33 | SQVSMWDQRWQDHQHLLPITDVP [P15H] | 2.07
34 | SQVSMWDQRWQDHQDLLPITDVP [P15D] | 4.41
35 | SQVSMWDQRWQDHQGLLPITDVP [P15G] | 3.45
36 | SQVSMWDQRWQDHQLLLPITDVP [P15L] | 2.06
37 | SQVSMWDQRWQDHQKLLPITDVP [P15K] | 2.82
38 | SQVSMWDQRWQDHQCLLPITDVP [P15C] | 2.18
39 | SQVSMWDQRWQDHQALLPITDVP [P15A] | 2.23
40 | SQVSMWDQRWQDHQFLLPITDVP [P15F] | 2.2
41 | SQVSMWDQRWQDHQWLLPITDVP [P15W] | 1.43
42 | SQVSMWDQRWQDHQMLLPITDVP [P15M] | 1.82
43 | SQVSMWDQRWQDHQILLPITDVP [P15I] | 2.03
44 | SQVSMWDQRWQDHQQLLPITDVP [P15Q] | 3.25
45 | SQVSMWDQRWQDHQYLLPITDVP [P15Y] | 2.27
46 | SQVSMWDQRWQDHQNLLPITDVP [P15N] | 2.77
47 | SQVSMWDQRWQDHQTLLPITDVP [P15T] | 1.93
48 | SQVSMWDQRWQDHQSLLPITDVP [P15S] | 3.35
49 | SQVSMWDQRWQDHQELLPITDVP [P15E] | 2.77
50 | SQVSMWDQRWQWHQPLLPITDVP [D12W] | 1.24

Row | Variant | protein stability index
51 | SQVSMWDQRWQTHQPLLPITDVP [D12T] | 2.59
52 | SQVSMWDQRWQSHQPLLPITDVP [D12S] | 2.1
53 | SQVSMWDQRWQQHQPLLPITDVP [D12Q] | 2.06
54 | SQVSMWDQRWQYHQPLLPITDVP [D12Y] | 3.2
55 | SQVSMWDQRWQMHQPLLPITDVP [D12M] | 1.85
56 | SQVSMWDQRWQRHQPLLPITDVP [D12R] | 1.34
57 | SQVSMWDQRWQNHQPLLPITDVP [D12N] | 2.17
58 | SQVSMWDQRWQVHQPLLPITDVP [D12V] | 3.1
59 | SQVSMWDQRWQPHQPLLPITDVP [D12P] | 1.78
60 | SQVSMWDQRWQDHQPLLPITDSP [V22S] | 2.8
61 | SQVSMWDQRWQDHQPLLPITDYP [V22Y] | 1.91
62 | SQVSMWDQRWQDHQPLLPITDHP [V22H] | 2.75
63 | SQVSMWDQRWQDHQPLLPITDCP [V22C] | 2.06
64 | SQVSMWDQRWQDHQPLLPITDTP [V22T] | 2.65
65 | SQVSMWDQRWQDHQPLLPITDRP [V22R] | 2.99
66 | SQVSMWDQRWQDHQPLLPITDLP [V22L] | 2.43
67 | SQVSMWDQRWQDHQPLLPITDGP [V22G] | 2.42
68 | SQVSMWDQRWQDHQPLLPITDAP [V22A] | 2.31
69 | SQVSMWDQRWQDHQPLLPITDEP [V22E] | 3.45
70 | SQVSMWDQRWQDHQPLLPITDIP [V22I] | 2.19
71 | SQVSMWDQRWQDHQPLLPITDKP [V22K] | 3.37
72 | SQVSMWDQRWQDHQPLLPITDWP [V22W] | 2.19
73 | SQVSMWDQRWQDHQPLLPITDFP [V22F] | 2.72
74 | SQVSMWDQRWQDHQPLLPITDQP [V22Q] | 2.98
75 | SQVSMWDQRWQDHQPLLPITDPP [V22P] | 2.83

Row | Variant | protein stability index
76 | SQVSMWDQRWQDHQPLLPITDNP [V22N] | 2.69
77 | SQVSMWDQRWQDHQPLLPITDDP [V22D] | 3.85
78 | SQVSMWDQRWQDHQPLLPITDMP [V22M] | 2.53
79 | SQVSMWDQRWQDHQPLLPITDVE [P23E] | 2.9
80 | SQVSMWDQRWQDHQPLLPITDVC [P23C] | 2.85
81 | SQVSMWDQRWQDHQPLLPITDVA [P23A] | 2.56
82 | SQVSMWDQRWQDHQPLLPITDVD [P23D] | 3.6
83 | SQVSMWDQRWQDHQPLLPITHVP [D21H] | 1.75
84 | SQVSMWDQRWQDHQPLLPITSVP [D21S] | 1.6
85 | SQVSMWDQRWQDHQPLLPITMVP [D21M] | 1.62
86 | SQVSMWDQRWQDHQPLLPITEVP [D21E] | 1.77
87 | SQVSMWDQRWQDHQPLLPITWVP [D21W] | 1.63
88 | SQVSMWDQRWQDHQPLLPITCVP [D21C] | 5.18
89 | SQVSMWDQRWQDHQPLLPITTVP [D21T] | 2.88
90 | SQVSMWDQRWQDHQPLLPITYVP [D21Y] | 1.65
91 | SQVSMWDQRWQDHQPLLPITNVP [D21N] | 1.7
92 | SQVSMWDQRWQDHQPLLPITFVP [D21F] | 1.44
93 | SQVSMWDQRWQDHQPLLPITPVP [D21P] | 2.07
94 | SQVSMWDQRWQDHQPLLPITKVP [D21K] | 2.44
95 | SQVSMWDQRWQDHQPLLPITAVP [D21A] | 2.56
96 | SQVSMWDQRWQDHQPLLPITQVP [D21Q] | 1.53
97 | SQVSMWDQRWQDHQPLLPITGVP [D21G] | 1.94
